# Test results: patent publication US6440701 (AVENTIS PASTEUR, dated 2002)
# B1: Native Tbp2 (4223) (receptor)
# chain: CGGSGGSNPPAPTPIPNASGSGNTGNTGNAGGTDNTANAGNTGGTNSGTGSANTPEPKYQDVPTEKNEKDKVSSIQEPAMGYGMALSKINLHNRQDTPLDEKNIITLDGKKQVAEGKKSPLPFSLDVENKLLDGYIAKMNVADKNAIGDRIKKGNKEISDEELAKQIKEAVRKSHEFQQVLSSLENKIFHSNDGTTKATTRDLKYVDYGYYLANDGNYLTVKTDKLWNLGPVGGVFYNGTTTAKELPTQDAVKYKGHWDFMTDVANRRNRFSEVKENSQAGWYYGASSKDEYNRLLTKEDSAPDGHSGEYGHSSEFTVNFKEKKLTGKLFSNLQDRHKGNVTKTERYDIDANIHGNRFRGSATASNKNDTSKHPFTSDANNRLEGGFYGPKGEELAGKFLTNDNKLFGVFGAKRESKAEEKTEAILDAYALGTFNTSNATTFTPFTEKQLDNFGNAKKLVLGSTVIDLVPTDATKNEFTKDKPESATNEAGETLMVNDEVSVKTYGKNFEYLKFGELSIGGSHSVFLQGERTATTGEKAVPTTGTAKYLGNWVGYITGKDTGTGTGKSFTDAQDVADFDIDFGNKSVSGKLITKGRQDPVFSITGQIAGNGWTGTASTTKADAGGYKIDSSSTGKSIVIKDANVTGGFYGPNANEMGGSFTHNADDSKASVVFGTKRQQEVK
# Target: apo-hTf-Sepharose 4B (human apo-transferrin coupled to Sepharose 4B) (human, UniProt P02787 20-698, coupled to Sepharose 4B)
# Sequence (P02787 20-698 limits assumed): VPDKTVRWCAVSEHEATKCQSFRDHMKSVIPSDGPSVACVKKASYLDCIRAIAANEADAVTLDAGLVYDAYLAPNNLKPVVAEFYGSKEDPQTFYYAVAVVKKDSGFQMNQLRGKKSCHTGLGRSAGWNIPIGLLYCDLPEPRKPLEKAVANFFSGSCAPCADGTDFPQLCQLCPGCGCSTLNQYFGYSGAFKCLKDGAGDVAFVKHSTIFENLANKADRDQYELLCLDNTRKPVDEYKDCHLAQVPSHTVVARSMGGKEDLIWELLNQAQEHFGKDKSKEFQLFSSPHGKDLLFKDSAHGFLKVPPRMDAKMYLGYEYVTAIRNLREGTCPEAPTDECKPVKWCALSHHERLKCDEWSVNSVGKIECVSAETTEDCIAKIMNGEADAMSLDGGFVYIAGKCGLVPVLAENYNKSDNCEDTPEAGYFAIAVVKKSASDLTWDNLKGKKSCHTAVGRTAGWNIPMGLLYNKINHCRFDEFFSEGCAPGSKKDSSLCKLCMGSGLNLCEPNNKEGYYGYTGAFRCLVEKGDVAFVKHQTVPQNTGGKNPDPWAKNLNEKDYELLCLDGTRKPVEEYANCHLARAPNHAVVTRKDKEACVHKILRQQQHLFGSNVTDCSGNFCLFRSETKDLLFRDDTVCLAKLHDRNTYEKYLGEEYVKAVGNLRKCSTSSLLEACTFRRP
# Experiment: affinity chromatography of solubilized membranes on apo-hTf-Sepharose 4B
binder,measurement,value
B1,binding result,binds
